Patent US20230295323A1 (DONGDA BIOSCIENCE INC SUZHOU, published 2023)
Residue numbers refer to the chain shown, from its start. In names and notes the source's numbering stands.

Legend:
[1] = molecular target: T1, human GITR on cells (293T-GITR, Jurkat-hGITR / Jurkat-GITR, Jurkat-GITR-NF-kB, 293T-GITR-NFkb-luc, primary … (human, UniProt Q9Y5U5 26-241)); assay: FACS competition on Jurkat-hGITR cells; competitor biotin-labeled human GITR ligand
T1 construct: whole, on cells; also called TNFRSF18; CD357
T1 sequence (looked up): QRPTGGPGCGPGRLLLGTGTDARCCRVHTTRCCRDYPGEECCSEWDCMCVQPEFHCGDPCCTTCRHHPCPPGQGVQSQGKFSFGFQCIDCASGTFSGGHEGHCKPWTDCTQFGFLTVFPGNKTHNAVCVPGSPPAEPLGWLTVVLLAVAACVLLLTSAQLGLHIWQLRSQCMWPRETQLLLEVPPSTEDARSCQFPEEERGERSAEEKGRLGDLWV
Method: FACS assay for the blocking effect of the antibodies: FACS assay was conducted by using BD C6 to determine the blocking effect of the hybridoma antibodies on the binding of biotin-labeled human GITR ligands to Jurkat-hGITR cells. Jurkat-hGITR cells were suspended in FACS buffer (PBS containing 3% FBS). Diluted hybridoma antibodies were added into the cell suspension and the mixture was incubated in a 96-well plate for 1 hour at 4° C. […] After incubation, the 96-well plate was washed 3 times, and mouse anti-biotin PE antibodies (Biolgend, Cat No: 409004) were added and incubated at 4° C. for 0.5 hours. The cells in the 96-well plate were washed 3 times and finally analyzed with BD C6.

human GITR (ECD)-mFc = molecular target: T2, human GITR (ECD)-mFc (human, UniProt Q9Y5U5 26-162); assay: ELISA, plate-coated GITR-mFc
T2 construct: extracellular domain; Bought (Dongda Bioscience); also called GITR-mFc; not shown: mouse Fc (mFc)
T2 sequence (looked up): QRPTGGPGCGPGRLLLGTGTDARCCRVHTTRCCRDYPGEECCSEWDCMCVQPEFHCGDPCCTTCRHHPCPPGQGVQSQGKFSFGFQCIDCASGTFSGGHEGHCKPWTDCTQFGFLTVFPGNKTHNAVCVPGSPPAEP
Method: As indicated by the X axis, the concentrations of the test antibodies were 20000 ng/mL, 2000 ng/mL, 200 ng/mL, 20 ng/mL, 2 ng/mL, 0.2 ng/mL, 0.02 ng/mL, 0.002 ng/mL, 0.0002 ng/mL, and 0.00002 ng/mL.

[2] = molecular target: T1, human GITR on cells (293T-GITR, …); assay: FACS (MFI), binding to Jurkat-GITR cells
[3] = molecular target: T1, human GITR on cells (293T-GITR, …); assay: FACS, blocking of GITR-L (0.25 ug/mL) binding to Jurkat-GITR cells
GITR-ECD-hFc = molecular target: T3, GITR-ECD-hFc (UniProt Q9Y5U5 26-162, limits assumed); assay: ELISA, plate-coated GITR-ECD-hFc
T3 construct: extracellular domain; not shown: human Fc (hFc)
T3 sequence (looked up): T2 sequence (looked up)
Method: ELISA assay: a 96-well ELISA plate (Corning, Cat No: 9018) was inoculated with GITR-ECD-hFc, left standing overnight at 4° C., and washed 3 times with washing buffer (PBS+0.05% Tween 20), then blocking buffer (PBS+1% BSA (Sigma, Cat No: V90093)) was added, and the 96-well ELISA plate was incubated for 1 hour and washed 3 times; hybridoma supernatant was added, the 96-well ELISA plate was incubated for 1 hour and washed 3 times, 100 µL of goat anti-mouse IgG secondary antibodies (Thermo, Cat No: 31432) diluted at a ratio of 1:10000 was added into each well, and the 96-well ELISA plate was incubated at room temperature for 1 hour and washed 3 times. 100 µL of TMB (Biosubstrate Technologies, Cat No: ES-002) was added into each well and left standing for 3 minutes for color development, then a stop solution (2N H₂SO₄) was added at a dose of 100 µL/well to terminate the reaction, and OD450×signal of each sample was measured with a Tecan Spark microplate reader.

B1: 9B3 (murine) (antibody, V domains shown)
VH: QVQLQQSGAELMNLGASVKISCKATGYPVSRYWIEWLKQRPGHGPEWIGEILPGSDYANYNEKFKGKATFTADISSNSAYMQLSSLTSEDSAVYYCSRKGAYYALDFWGQGTSVTVSS
VL: DIVMTQSPATLSVTPGERVSLSCRASQSVNNYLHWYQQKSHESPRLLISYVSQSISGISSRFSGSGSGTDFTLIIHSVETEDFGMYFCQQSNRWPLTFGAGTKLELK
notes: Mouse hybridoma monoclonal antibody
An IC50 [1] of 0.0413 µg/mL was found for B1 in this work.

B2: h4B11-hIgG1 (antibody, V domains shown)
VH: EVQLVQSGAEVKKPGASVKVSCKASGFTFTDSVLHWVRQAPGQRLEWIGYIHPYNDDTKFHDSFKGRATLTSDKSASTAYMELSSLRSEDTAVYYCSRNDELRVALDYWGQGTLVTVSS
VL: EIVLTQSPATLSLSPGERATLSCRASQSVSTSTYSYVHWYQQKPGQAPRLLIKYASNLESGIPARFSGSGSGTDFTLTISSLEPEDFAVYYCQHSWGNPWTFGGGTKVEIKR
notes: Humanized 4B11, human IgG1; also called 4B11 (humanized); h4B11-IgG1
With B2 the “EC50 (read off the curve)” value (human GITR (ECD)-mFc) was roughly 0.005 µg/mL, the EC50 [2] was 0.132 µg/mL and the IC50 [3] was 0.284 µg/mL.

B3: 10E11VH(G24A/A67V)-hIgG1(3A) (antibody)
heavy: EVQLVQSGAEVKKPGESLRISCKASGYPVSRYWIEWVRQMPGKGLEWIGEILPGSDYANYNEKFKGHVTFSADISISTAYLQWSSLKASDTAMYYCSRKGAYYALDFWGQGTLVTVSSASTKGPSVFPLAPSSKSTSGGTAALGCLVKDYFPEPVTVSWNSGALTSGVHTFPAVLQSSGLYSLSSVVTVPSSSLGTQTYICNVNHKPSNTKVDKKVEPKSCDKTHTCPPCPAPELLGGPSVFLFPPKPKDTLMISRTPEVTCVVVDVSHEDPEVKFNWYVDGVEVHNAKTKPREEQYNATYRVVSVLTVLHQDWLNGKEYKCKVSNKALPAPIAATISKAKGQPREPQVYTLPPSRDELTKNQVSLTCLVKGFYPSDIAVEWESNGQPENNYKTTPPVLDSDGSFFLYSKLTVDKSRWQQGNVFSCSVMHEALHNHYTQKSLSLSPG
light: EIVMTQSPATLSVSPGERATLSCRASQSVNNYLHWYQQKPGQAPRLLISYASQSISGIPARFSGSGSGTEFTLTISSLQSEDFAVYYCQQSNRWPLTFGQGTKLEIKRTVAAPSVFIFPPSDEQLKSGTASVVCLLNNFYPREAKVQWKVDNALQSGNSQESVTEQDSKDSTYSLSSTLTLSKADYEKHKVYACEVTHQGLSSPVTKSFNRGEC
notes: Humanized 10E11 (AV), human IgG1 with the 3A Fc variant; also called 10E11VH(AV)-hIgG1(3A); h10E11(AV)-hIgG1(3A)
For B3, the “EC50 (read off the curve)” value (human GITR (ECD)-mFc) was roughly 0.006 µg/mL, the EC50 [2] was 0.102 µg/mL and the IC50 [3] was 0.151 µg/mL.

B4: 3F5 (humanized) -hIgG1 (antibody, V domains shown)
VH: QVQLVQSGAEVKKPGASVKVSCKASGYTFTDHYMHWVRQAPGQGLEWIGDINPNSGGTINNQNFKGRATLTVDKSISTAYMELSRLRSDDTAVYYCARGFSGLAYWGQGTLVTVSS
VL: DIVMTQTPLSSPVTLGQPASISCKSSQSLLDRDGKTYLNWLQQRPGQPPRRLIYLVSILDSGVPDRFSGSGAGTDFTLKISRVEAEDVGVYYCWQGTHFPWTFGQGTKLEIKR
notes: also called h3F5-hIgG1; h3F5-IgG1
B4 was tested, and the “EC50 (read off the curve)” value (human GITR (ECD)-mFc) was roughly 0.02 µg/mL, the EC50 [2] was 0.112 µg/mL and the IC50 [3] was 0.101 µg/mL.

B5: h4E4-hIgG1 (antibody, V domains shown)
VH: QVQLVQSGAEVKKPGASVKVSCKASGYTFTDHYMNWVRQAPGQGLEWIGDIDPKNGGTLYNQNFKGRATLTVDKSISTAYMELSRLRSDDTAVYYCARREAMDYWGQGTLVTVSS
VL: DVVMTQSPLSLPVTPGEPASISCRSSQSIVYSNGNTYLNWYLQKPGQSPQLLIYKVSNRFSGVPDRFSGSGSGTDFTLKISRVEAEDVGVYYCFQGSHVPWTFGGGTKVEIKR
notes: Humanized 4E4, human IgG1; also called 4E4 (humanized); h4E4-IgG1
In the case of B5, the “EC50 (read off the curve)” value (human GITR (ECD)-mFc) is reported as roughly 0.06 µg/mL, the EC50 [2] is reported as 0.0895 µg/mL and the IC50 [3] is reported as 0.169 µg/mL.

B6: 4E4 (murine) (antibody, V domains shown)
VH: EVQLQQSGPELVKPGASVKISCKASGYTFTDHYMNWVKQSHGKSLEWIGDIDPKNGGTLYNQNFKGRATLTVDKSSSTAYMDLRSLTSEDSAVYYCARREAMDYWGQGTSVTVSS
VL: B5 VL with V3L, S7I, T14S, P15F, E17D, P18Q, Q50K, V88L, V109L
notes: as for B1
An EC50 (GITR-ECD-hFc) of 0.0017 µg/mL was found for B6 in this work.

B7: 13G12 (murine) (antibody, V domains shown)
VH: QVQLQQPGTELVKPGASVKLSCKASGYTFTSNWMNWVKQRPGHGLEWIGNIYPSNGGTNYNEKFKSKATLTVDKSSSTAYMQLRGLTSEDSAVYYCVRHSNYVGAMDYWGQGTSVTVSS
VL: QIVLTQSPAIMSASPGEKVTMTCGASSSVSYMYWFQQKPGSSPRLLIYDTFNLASGVPVRFSGSESGTSYSLTISRMEAEDAATYYCQHWSSYPPTFGSGTKLEIDR
notes: as for B1
An EC50 (GITR-ECD-hFc) of 0.0103 µg/mL and an IC50 [1] of 4 µg/mL were found for B7 in this work.
